Experimental data: patent publication US6579695B1

Assays:
[1] = biological target: N-terminal hexa-histidine-tagged SrfB1 domain of surfactin synthetase, apo-form (His6-SrfB1) (Bacillus subtilis) (UniProt Q04747)
[2] = biological target: Lactobacillus casei D-Alanyl carrier protein, apo-form (apo-Dcp) (Lactobacillus casei)
[3] = biological target: Rhizobial NodF (wild-type) (Rhizobial)
[4] = biological target: E. coli acyl carrier protein, apo-form (apo-ACP) (E. coli) (UniProt P0A6A8)

Substance	[14C]-L-valine-holo-SrfB1 covalent complex formed after preincubation of apo-SrfB1 with Sfp and CoASH [1] [fold]	radioactivity incorporated into the protein fraction, 36 hour in vitro phosphopantetheinylation [2]	% conversion, in vitro phosphopantetheinylation with [3H]CoA [3] [%]	[3H]phosphopantetheine incorporated, in vitro phosphopantetheinylation (ACP-NodF chimera) [dpm]	Km for apo-ACP, [3H]CoA radioassay [4] [µM]	apparent kcat of phosphopantetheinyl transfer, [3H]CoA radioassay [4] [min⁻¹]
Bacillus subtilis Sfp (enzyme)	14	–	–	–	–	–
E. coli holo-acyl carrier protein synthase (ACPS) (enzyme)	–	1.04e+06	47	122000	< 1	10
